Measurements: the Human Domainome abundance scans (Beltran et al. 2025)

B1: Gamma-crystallin S, residues 96 to 176; numbered along this chain, P22914 (parent)
chain: IQIFEKGDFSGQMYETTEDCPSIMEQFHMREIHSCKVLEGVWIFYELPNYRGRQYLLDKKEYRKPIDWGAASPAVQSFRRI

Variants of: B1
Assay: abundance fitness (aPCA) (normalised: wild type 0, dead -1); higher = more abundant; growth selection in yeast, the domain comes from the species named
Settings: Homo sapiens

Abundance fitness of substitutions, site by site:
T17: P 0.075; E -0.069; S -0.068; R -0.012; D -0.051; W 0.021; C 0.027; V -0.031; F -0.007; A 0.022; I 0.037; M -0.059; Y -0.352; G -0.013; K 0.074; N -0.02; Q -0.005; L 0.022
E18: Q 0.009; G 0.038; N 0.072; W 0.014; V 0.002; T -0.046; L -0.021; D -0.153; S 0.016; K 0.017; P -0.067; M -0.066; A -0.087; R -0.028; H -0.039; Y -0.032; I 0.079; F -0.007; C 0.006
C20: I 0.023; P -1.04; K -0.027; G -0.352; T -0.086; A -0.004; V -0.087; M -0.008; L -0.142; S -0.054; R -0.235; W -0.065; F -0.222; E -0.144; D -0.754; Y -0.035; Q -0.002; N -0.134; H -0.398
Y14: F -0.011; I -0.003; Q 0.128; A 0.049; G 0.028; C -0.027; H 0.034; E 0.113; W -0.056; D -0.01; T 0.086; S 0.07; P -0.993; R -0.004; N 0.063; K -0.009; V -0.002; M -0.166
P21: G 0.004; N -0.015; M -0.057; K -0.016; D -0.063; T -0.012; I -0.053; E -0.028; A -0.043; Q 0.023; S 0.019; C -0.011; Y -0.109; F 0.075; W 0.037; R -0.106; L -0.002; V 0.009
T16: R 0.003; Q -0.108; N 0.024; V -0.035; W 0.078; L 0.049; I -0.055; G 0.006; A 0.026; E 0.046; H -0.003; M 0.061; Y 0.018; C 0.012; F 0.148; D -0.002; K -0.129; P 0.102
D19: N -0.193; R -0.015; I -0.144; W -0.024; Y 0.009; L -0.124; H 0.143; T -0.059; E -0.018; V -0.038; G -0.035; Q 0.181; M -0.097; F -0.116; C -0.003; K -0.114; P -0.237; A -0.005
S22: N 0.001; F -0.035; G -0.015; T -0.08; M -0.094; E -0.034; I 0.033; K 0.062; Q -0.019; R -0.016; C 0.02; H -0.01; A 0.023; P -0.907; L -0.022
M13: R -0.01; S -0.023; V -0.017; W -0.048; T 0.027; Y 0.094; Q 0.019
E15: C -0.137; H -0.095; V -0.013; Q 0.018; G -0.044; W -0.062; T -0.064; M -0.18; K 0.147; D -0.046; L -0.078; Y 0.115; F -0.05; P -0.038; I -0.183; A -0.011; R -0.057
